Measurements published in publication PMC10397247.

How the values were obtained:
Experiment in all cases: two-hybrid library CCNG1;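 further: natural log of median RNA to DNA barcode read ratio; higher means stronger binding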
4H730-bH = target: T1, 4H730-bH
T1 chain: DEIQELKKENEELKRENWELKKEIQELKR

4H349-bH = target: T2, 4H349-bH
T2 chain: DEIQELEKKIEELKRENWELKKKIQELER

4H56-bH = target: T3, 4H56-bH
T3 chain: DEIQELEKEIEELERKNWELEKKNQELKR

4H796-bH = target: T4, 4H796-bH
T4 chain: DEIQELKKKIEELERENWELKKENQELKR

4H3364-bH = target: T5, 4H3364-bH
T5 chain: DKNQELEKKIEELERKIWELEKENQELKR

4H3381-bH = target: T6, 4H3381-bH
T6 chain: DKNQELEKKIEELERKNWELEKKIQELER

4H2931-bH = target: T7, 4H2931-bH
T7 chain: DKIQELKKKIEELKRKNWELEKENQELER

4H3041-bH = target: T8, 4H3041-bH
T8 chain: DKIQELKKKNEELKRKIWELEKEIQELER

4H3297-bH = target: T9, 4H3297-bH
T9 chain: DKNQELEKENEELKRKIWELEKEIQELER

4H949-bH = target: T10, 4H949-bH
T10 chain: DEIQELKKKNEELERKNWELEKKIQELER

4H730-bN = target: T11, 4H730-bN
T11 chain: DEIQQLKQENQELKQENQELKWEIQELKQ

4H56-bN = target: T12, 4H56-bN
T12 chain: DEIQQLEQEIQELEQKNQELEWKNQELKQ

4H2931-bN = target: T13, 4H2931-bN
T13 chain: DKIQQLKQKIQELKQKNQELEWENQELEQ

4H3297-bN = target: T14, 4H3297-bN
T14 chain: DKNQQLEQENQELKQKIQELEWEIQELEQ

4H932-bN = target: T15, 4H932-bN
T15 chain: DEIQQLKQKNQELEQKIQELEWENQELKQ

4H796-bN = target: T16, 4H796-bN
T16 chain: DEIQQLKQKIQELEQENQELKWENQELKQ

4H3364-bN = target: T17, 4H3364-bN
T17 chain: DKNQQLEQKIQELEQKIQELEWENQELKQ

4H349-bN = target: T18, 4H349-bN
T18 chain: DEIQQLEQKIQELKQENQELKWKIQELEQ

4H949-bN = target: T19, 4H949-bN
T19 chain: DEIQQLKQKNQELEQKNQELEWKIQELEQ

4H3041-bN = target: T20, 4H3041-bN
T20 chain: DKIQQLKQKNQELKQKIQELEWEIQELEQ

4H3381-bN = target: T21, 4H3381-bN
T21 chain: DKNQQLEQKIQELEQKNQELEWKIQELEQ

4H883-bN = target: T22, 4H883-bN
T22 chain: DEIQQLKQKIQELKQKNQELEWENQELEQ

4H754-bN = target: T23, 4H754-bN
T23 chain: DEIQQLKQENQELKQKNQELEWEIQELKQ

4H908-bN = target: T24, 4H908-bN
T24 chain: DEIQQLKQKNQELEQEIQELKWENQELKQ

4H607-bN = target: T25, 4H607-bN
T25 chain: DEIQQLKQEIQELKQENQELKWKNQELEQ

4H717-bN = target: T26, 4H717-bN
T26 chain: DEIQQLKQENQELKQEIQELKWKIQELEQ

4H687-bN = target: T27, 4H687-bN
T27 chain: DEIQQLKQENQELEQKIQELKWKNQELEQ

4H918-bN = target: T28, 4H918-bN
T28 chain: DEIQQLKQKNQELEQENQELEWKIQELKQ

4H797-bN = target: T29, 4H797-bN
T29 chain: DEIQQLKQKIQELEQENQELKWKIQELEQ

P8SHb = target: T30, P8SHb
T30 chain: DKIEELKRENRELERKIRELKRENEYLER

4H953-bN = target: T31, 4H953-bN
T31 chain: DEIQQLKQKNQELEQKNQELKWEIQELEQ

4H72-bN = target: T32, 4H72-bN
T32 chain: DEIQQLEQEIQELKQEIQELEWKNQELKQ

4H967-bN = target: T33, 4H967-bN
T33 chain: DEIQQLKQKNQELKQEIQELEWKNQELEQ

B1: 4H2931-bH (peptide)
chain: DKIQELKKKIEELKRKNWELEKENQELER
interaction score (4H730-bH): -0.532 | interaction score (4H349-bH): -0.83 | interaction score (4H56-bH): -0.623 | interaction score (4H796-bH): -0.865 | interaction score (4H3364-bH): -0.507 | interaction score (4H3381-bH): -0.508 | interaction score (4H2931-bH): -0.492 | interaction score (4H3041-bH): -0.279 | interaction score (4H3297-bH): 0.571 | interaction score (4H949-bH): -0.384

B2: 4H2931-bN (peptide)
chain: DKIQQLKQKIQELKQKNQELEWENQELEQ
interaction score (4H730-bN): -1.27 | interaction score (4H56-bN): 0.0366 | interaction score (4H2931-bN): -0.656 | interaction score (4H3297-bN): -0.835 | interaction score (4H932-bN): -0.619 | interaction score (4H796-bN): -1.66 | interaction score (4H3364-bN): -0.721 | interaction score (4H349-bN): -1.08 | interaction score (4H949-bN): -0.75 | interaction score (4H3041-bN): -0.593 | interaction score (4H3381-bN): -1.1

B3: 4H607-bN (peptide)
chain: DEIQQLKQEIQELKQENQELKWKNQELEQ
interaction score (4H883-bN): -0.644 | interaction score (4H754-bN): -1.32 | interaction score (4H908-bN): -0.294 | interaction score (4H607-bN): 0.145 | interaction score (4H717-bN): -1.11 | interaction score (4H687-bN): -1.48 | interaction score (4H918-bN): 0.0461 | interaction score (4H797-bN): -0.52 | interaction score (P8SHb): -1.61 | interaction score (4H953-bN): -1.56 | interaction score (4H72-bN): -1.65 | interaction score (4H967-bN): -0.227
